Data published in US20260049134A1 (UNIVERSITY OF FLORIDA RESEARCH FOUNDATION, published 2026).

T1: DCC
T1 construct: coated protein in the ELISA; also called DCC-His (R&D Systems)
T1 chain: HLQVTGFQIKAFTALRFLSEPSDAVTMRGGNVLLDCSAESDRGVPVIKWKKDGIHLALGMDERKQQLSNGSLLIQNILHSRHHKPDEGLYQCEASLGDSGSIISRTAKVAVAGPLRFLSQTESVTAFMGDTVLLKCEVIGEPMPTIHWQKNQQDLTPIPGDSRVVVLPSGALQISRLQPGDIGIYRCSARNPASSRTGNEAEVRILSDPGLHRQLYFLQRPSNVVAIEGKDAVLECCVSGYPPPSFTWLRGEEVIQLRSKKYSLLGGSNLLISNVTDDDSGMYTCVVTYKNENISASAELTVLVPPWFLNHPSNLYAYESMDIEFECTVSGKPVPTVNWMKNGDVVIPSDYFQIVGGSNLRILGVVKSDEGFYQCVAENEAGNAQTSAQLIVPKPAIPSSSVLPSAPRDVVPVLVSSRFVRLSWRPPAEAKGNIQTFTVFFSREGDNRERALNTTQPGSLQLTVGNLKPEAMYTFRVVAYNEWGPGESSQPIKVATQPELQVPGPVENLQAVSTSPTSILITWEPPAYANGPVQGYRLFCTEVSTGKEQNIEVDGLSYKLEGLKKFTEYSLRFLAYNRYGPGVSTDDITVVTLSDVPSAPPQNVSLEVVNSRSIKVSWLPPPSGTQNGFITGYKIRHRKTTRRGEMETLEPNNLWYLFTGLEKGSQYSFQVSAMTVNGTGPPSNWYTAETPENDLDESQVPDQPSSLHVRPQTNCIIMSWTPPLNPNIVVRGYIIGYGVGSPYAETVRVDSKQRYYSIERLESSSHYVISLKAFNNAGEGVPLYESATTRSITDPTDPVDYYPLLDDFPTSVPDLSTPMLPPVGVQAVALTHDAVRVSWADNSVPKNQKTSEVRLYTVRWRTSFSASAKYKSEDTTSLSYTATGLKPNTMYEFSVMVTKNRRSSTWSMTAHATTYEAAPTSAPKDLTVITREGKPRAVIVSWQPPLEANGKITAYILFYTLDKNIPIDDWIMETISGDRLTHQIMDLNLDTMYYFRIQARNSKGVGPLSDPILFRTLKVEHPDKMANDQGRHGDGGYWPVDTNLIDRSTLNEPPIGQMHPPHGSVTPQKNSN

T2: CADM1-His (Acro Biosystems) (human, UniProt Q9BY67 45-374)
T2 construct: Bought; also called CADM1/IGSF4A; not shown: His tag of the bought protein
T2 sequence: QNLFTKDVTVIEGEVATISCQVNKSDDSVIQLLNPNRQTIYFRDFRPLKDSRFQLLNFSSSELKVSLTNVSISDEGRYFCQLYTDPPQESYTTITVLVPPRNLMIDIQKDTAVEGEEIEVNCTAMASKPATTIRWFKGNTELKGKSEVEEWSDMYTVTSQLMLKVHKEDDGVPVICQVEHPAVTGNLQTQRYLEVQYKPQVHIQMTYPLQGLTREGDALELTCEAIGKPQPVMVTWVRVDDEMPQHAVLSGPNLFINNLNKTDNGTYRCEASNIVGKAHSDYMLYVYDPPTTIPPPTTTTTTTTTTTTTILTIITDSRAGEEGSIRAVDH

T3: IGSF11 (VSIG3)
T3 construct: coated protein in the ELISA; also called IGSF11-Fc (R&D Systems)
T3 chain: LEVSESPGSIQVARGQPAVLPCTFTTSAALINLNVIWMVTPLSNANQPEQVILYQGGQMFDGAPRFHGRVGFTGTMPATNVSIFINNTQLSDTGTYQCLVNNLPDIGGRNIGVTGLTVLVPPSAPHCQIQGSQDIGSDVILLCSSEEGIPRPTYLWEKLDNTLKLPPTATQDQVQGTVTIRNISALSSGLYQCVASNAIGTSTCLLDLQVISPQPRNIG

T4: SELL (L-Selectin)
T4 construct: coated protein in the ELISA; also called SELL-Fc-His (R&D Systems)
T4 chain: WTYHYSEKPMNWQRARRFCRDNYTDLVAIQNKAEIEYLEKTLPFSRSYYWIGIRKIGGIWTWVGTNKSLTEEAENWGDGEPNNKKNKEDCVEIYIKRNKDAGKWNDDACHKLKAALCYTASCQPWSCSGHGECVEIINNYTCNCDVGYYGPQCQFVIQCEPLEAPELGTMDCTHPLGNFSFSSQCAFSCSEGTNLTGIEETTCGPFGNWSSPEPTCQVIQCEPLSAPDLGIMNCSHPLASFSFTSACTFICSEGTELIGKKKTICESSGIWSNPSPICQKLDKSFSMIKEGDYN

T5: SLAMF7
T5 construct: coated protein in the ELISA; also called SLAMF7-StrepTag
T5 chain: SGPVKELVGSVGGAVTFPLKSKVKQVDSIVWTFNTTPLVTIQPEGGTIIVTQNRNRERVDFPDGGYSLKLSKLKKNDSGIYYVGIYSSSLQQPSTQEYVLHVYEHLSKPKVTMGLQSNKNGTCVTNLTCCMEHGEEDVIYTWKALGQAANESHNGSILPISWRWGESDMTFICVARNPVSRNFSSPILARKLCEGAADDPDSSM


Legend:
DCC = molecular target: T1, DCC; test: ELISA on coated DCC-His, 150 ng IgG1; None 0.095
Description: (§1) Recombinant purified ECDs (50-150 ng) of each putative target protein were coated, incubated with 150 ng of the indicated primary antibody, and binding was detected using a peroxidase-conjugated anti-human Fab secondary antibody. Heatmap represents averages of technical triplicates. (8B) Target validation via siRNA knockdown. H929 cells were transfected with siRNA pools targeting the putative antibody targets ICAM1, CADM1, and PTPRG. Cells were then subjected to cognate IgG binding analysis via flow cytometry. (NT, non-targeting siRNA).
(§2) ELISA ELISA was conducted as described previously. Briefly, 50-150 ng of antigen was coated overnight in half-area 96-well plates at 4° C., blocked with 3% BSA at 37° C. for 1 h, and 150 ng of chimeric rabbit/human IgG1 was added, incubating for 2 h at 37° C. […] After incubating at 37° C. for 15 min-1 h (depending on intensity of controls), data were acquired using a SpectraMax M5 plate reader (Molecular Devices).

[1] = molecular target: T2, CADM1-His (Acro Biosystems); test: ELISA on coated CADM1-His, 150 ng IgG1; None 0.059
Description: as §1, §2

IGSF11 (VSIG3) = molecular target: T3, IGSF11 (VSIG3); test: ELISA on coated IGSF11-Fc, 150 ng IgG1; None 0.090
Description: as §1, §2

SELL (L-Selectin) = molecular target: T4, SELL (L-Selectin); test: ELISA on coated SELL-Fc-His, 150 ng IgG1; None 0.096
Description: as §1, §2

SLAMF7 = molecular target: T5, SLAMF7; test: ELISA on coated SLAMF7-StrepTag, 150 ng IgG1; None 0.047
Description: as §1, §2

ELISA Absorbance (405 nm-570 nm) (DCC) | ELISA Absorbance (405 nm-570 nm) [1] | ELISA Absorbance (405 nm-570 nm) (IGSF11 (VSIG3)) | ELISA Absorbance (405 nm-570 nm) (SELL (L-Selectin)) | ELISA Absorbance (405 nm-570 nm) (SLAMF7) | Binder
0.098 | 0.061 | 0.088 | 0.103 | 0.054 | HW-42 chimeric rabbit-human IgG1 LA/LA/PG (antibody, V domains shown, Fc-silenced (L234A/L235A/P329G) IgG1, lambda; Alexa Fluor 647-labeled in single-step flow cytometry; Cluster C-1) VH: QSVKESEGGLFKPADTLTLTCTVSGFSLSSNEISWVRQAPGEGLEYIGIIDTGGRAYYAVWARSRSTITRNTNLNTVTLKMTSLTAADTATYFCARGGVDTEWYAFSSWGPGTLVTVPS VL: SFVLTQPASVQVNLGQTVSLTCTADTLSRRYASWYQQKPGQAPVLLIFRDTSRPSGVPDRFSGSSSGDTATLTISGAQAGDEADYYCATSDGSGSNYQYVFGGGTQLTVTG
0.086 | 0.053 | 0.085 | 0.09 | 0.047 | HW-70 chimeric rabbit-human IgG1 LA/LA/PG (antibody, V domains shown, Fc-silenced (L234A/L235A/P329G) IgG1, lambda; Alexa Fluor 647-labeled in single-step flow cytometry; Cluster C-1) VH: QSLEESGGRLVTPGTPLTLTCTVSGFSLSSNAMSWVRQAPGKGLEWIGTIDGYGYTYYASWAKGRFTVSKTSTTVDLKITSPTTEDTATYFCAREIYLGSNFWGPGTLVTISS VL: SFVLTQPASVQVNLGQTVSLTCTADTLSRRYASWYQQKPGQAPVLLIYRDTSRPSGVPDRFSGSSSGNTATLTISGAQAGDEADYYCATADGSGSSYQFVFGGGTQLTVTG
0.068 | 0.053 | 0.074 | 0.078 | 0.053 | HW-1 chimeric rabbit-human IgG1 LA/LA/PG (antibody, V domains shown, Fc-silenced (L234A/L235A/P329G) IgG1, lambda; Alexa Fluor 647-labeled in single-step flow cytometry; Prototype of cluster C-1) VH: QSLEESGGGLFKPTDTLTLTCTASGFSLGSSYAISWVRQAPGKELEWIGTIDSGRAYYARWAKSRSTITRNTNENTVTLKMTSLTAADTATYFCARDLIPTYSQDIWGPGTLVTISS VL: SFVLTQPASVQVNLGQTVSLTCTADTLSRRYASWYQQKPGQAPVLLIYRDTSRPSGVPDRFSGSSSGNTATLTISGAQAGDEADYYCATSDGSGNSYQYVFGGGTQLTVTS
0.063 | 0.045 | 0.07 | 0.067 | 0.054 | HW-25 chimeric rabbit-human IgG1 LA/LA/PG (antibody, V domains shown, Fc-silenced (L234A/L235A/P329G) IgG1, lambda; Alexa Fluor 647-labeled in single-step flow cytometry; Cluster C-1) VH: QSLEESGGRLVTPGTPLTLTCTVSGFSLSSYAMGWVRQAPGKGLEWIGIIDSRGSTYYATWAKGRFTISKTSTTVDLKITSPTTEDTATYFCAREDSYYYDSFNLWGPGTLVTVSS VL: SFVLTQPASVQVNLGQTVSLTCTADTLSRRYASWYQQKPGQAPVLLIYRDTSRPSGVPDRFSGSSSGNTATLTISGAQAGDEADYYCATSDGSGSSYQCVFGGGTQLTVTG
0.077 | 0.048 | 0.094 | 0.072 | 0.053 | HW-17 chimeric rabbit-human IgG1 LA/LA/PG (antibody, V domains shown, Fc-silenced (L234A/L235A/P329G) IgG1, lambda; Alexa Fluor 647-labeled in single-step flow cytometry; Cluster C-1) VH: QSLGESRGRLVTPDETLTLTCTVSGIDLSSNAMSWVRQAPGEGLEWIGTINTGGRAYYASWAKGRFTISRTSTTVDLKMTSLTTEDTATYFCARERYSDGRAYDIWGPGTLVTISS VL: SFVLTQPASVQVNLGQTVSLTCTADTLSRRYASWYQQKPGQAPVLLIYTDSNRPSGIPDRFSGSSSGNTATLTISGAQAGDEADYYCATDDGSGSIYQYVFGGGTQLTVTG
0.128 |  | 0.11 |  |  | HW-28 chimeric rabbit-human IgG1 LA/LA/PG (antibody, V domains shown, Fc-silenced (L234A/L235A/P329G) IgG1, lambda; Alexa Fluor 647-labeled in single-step flow cytometry; Cluster C-45) VH: QKQLVESGGRLVTPGTPLTLTCTASGFSLSSNAMSWVRQAPGEGLQWIGTISSGGSTYYASWAKGRFTISKTSTTVTLKMTSLTTEDTATYFCARGADLHRLWGPGTLVTVSS VL: SFVLTQPASVQVNLGQTVSLTCTGKPLSRSFASWYQQKPGQAPVLVIYRDTSRPSGVPDRFSGSSSGNTATLTISGAQAGDEADYYCATSDGSGSSYQYVFGGGTQLTVTG
0.074 | 0.05 | 0.069 | 0.074 | 0.049 | HW-8 chimeric rabbit-human IgG1 LA/LA/PG (antibody, V domains shown, Fc-silenced (L234A/L235A/P329G) IgG1, kappa; Alexa Fluor 647-labeled in single-step flow cytometry; Cluster C-45) VH: QSLEESGGRLVTPGTPLTLTCTVSGFSLSSYAMSWVRQAPGKGLEWIGAISTGGSTTYASWAKGRFTISKTSSTTVDLKMTSLTTEDTATYFCVRHFRLWGPGTLVTISS VL: QVLTQTPSSVSAAVGGTVTIKCQASQSIGSALAWFQQKPGQRPKLLIYRASNLASGVPSRFKGSGSGTEFALTISGVQREDAATYYCLGGAAAVWAFGAGTNVEIKR
0.079 | 0.055 | 0.08 | 0.081 | 0.052 | TH9-0022 (antibody, human IgG1, kappa, L234A L235A, V domains shown, also called TH9-022; negative control) VH: QSLEESGGRLVTPGTPLTLTCTVSGFSLSSYAMNWVRQAPGKGLEWIGIINSYGSTYYASWAKGRFTISKTSTTVDLKITSPTTEDTATYFCARVTYDSYGYGYAPYGMDLWGPGTLVTVSS VL: LVMTQTPSSTSNAVGGTVTIKCQASQSIGNVLAWYQQKPGQPPKLLIYAASTLASGVPSRVGGSRSGTEYTLTISGVQREDAATYYCLGSDSDSDIAFGGGTELEILR
0.129 | 0.067 | 0.087 | 0.177 |  | HW-16 chimeric rabbit-human IgG1 LA/LA/PG (antibody, V domains shown, Fc-silenced (L234A/L235A/P329G) IgG1, kappa; Alexa Fluor 647-labeled in single-step flow cytometry; Cluster C-45) VH: QSLEESGGRLVTPGTPLTLTCTASGFSLSSYAMSWVRQAPGKGLEWIGTMPTGGGTYYASWAKGRFTISKTSTTVDLQITSPTTEDTATYFCAKHWNIWGPGTLVTISS VL: DIVLTQTPSSTSTAVGDTVTINCRASQSIGRNLAWFQQKPGQPPKLLIYRASNLASGVPSRFKGSGSRTQFTLTISGVQREDAATYYCLGSYSSSDTAFGGGTELEILR
